{"source": "paper PMC9860674", "target": "Tle3^AIEC (type VI lipase effector 3 of adherent-invasive Escherichia coli LF82) (Escherichia coli AIEC LF82)", "assay": "SEC; purified Tle3 and Tli3 mixed at a molar ratio of 1:1.3; Superdex 200 16/60 in Hepes 10 mM pH 6.8, NaCl 150 mM; apparent molecular mass 100 kDa against a theoretical 101.9 kDa", "data": [{"substance": "Tli3^AIEC (type VI lipase immunity protein 3 of adherent-invasive Escherichia coli LF82) (natural protein)", "values": [{"measurement": "stoichiometry N", "result": 1}]}]}
